For one substance, fold more IL-12 loaded per EV than on control EVs with IL-12 genetically fused to PTGFRN results are on record in patent US20240082389A1.

For the test, the target named is ALFA nanobody (ALFANb) fused to the N-terminus of PTGFRN, displayed on the exterior surface of exosomes (UniProt Q9P2B2). The test is described as follows: IL-12 ELISA of loaded EVs.

Substance “mouse IL-12 fused to ALFAtag peptide (ligand)” gave a fold more IL-12 loaded per EV than on control EVs with IL-12 genetically fused to PTGFRN of 290 fold.
